Where two headings read alike, the source gives them in different places. Values belong to the molecule of their own block, whether it stands above or below them.
Legend:
[1] = target: LRX11 (insect-cell protein, limits not stated for the experiment) (Arabidopsis thaliana); assay: SEC-MALS
[2] = test system: wild-type pollen tubes; assay: Pollen tube growth assay after peptide addition; format: cell-based, Arabidopsis thaliana; conditions: peptide at 50 and 100 nM
[3] = target: LRX8 (insect-cell protein, limits not stated for the experiment) (Arabidopsis thaliana); assay: SEC-MALS
[4] = target: LLG2 ectodomain (residues 24 to 135) (Arabidopsis thaliana) (UniProt Q6NLF4); assay: ITC
Chain of LLG2 ectodomain (residues 24 to 135) (Arabidopsis thaliana) (Q6NLF4 24-135): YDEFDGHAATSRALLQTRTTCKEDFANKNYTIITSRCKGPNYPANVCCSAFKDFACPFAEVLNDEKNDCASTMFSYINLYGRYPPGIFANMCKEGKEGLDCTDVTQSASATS

[5] = target: LLG3 ectodomain (residues 24 to 137) (Arabidopsis thaliana) (UniProt Q9M0I0); assay: ITC
Chain of LLG3 ectodomain (residues 24 to 137) (Arabidopsis thaliana) (Q9M0I0 24-137): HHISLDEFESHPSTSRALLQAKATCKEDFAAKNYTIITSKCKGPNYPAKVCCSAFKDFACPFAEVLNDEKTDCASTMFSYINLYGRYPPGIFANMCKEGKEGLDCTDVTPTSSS

[6] = target: LRX8_(49–400) (Arabidopsis thaliana); assay: ITC
[7] = target: biotinylated LRX8 (49 to 400) fused to a noncleavable Avi-tag (Arabidopsis thaliana); assay: grating-coupled interferometry
[8] = target: LLG3 ectodomain (residues 24 to 137) (Arabidopsis thaliana) (UniProt Q9M0I0); assay: ITC; remark: listed apart in the source
[9] = target: LRX8_(49–400) (Arabidopsis thaliana); assay: ITC; remark: listed apart in the source
[10] = target: LRX8_(C157A.Y87A.A133F) (Arabidopsis thaliana); assay: ITC
[11] = target: the molecule itself; assay: SEC-MALS
[12] = target: LRX8_(49–400) (Arabidopsis thaliana); assay: ITC; remark: listed apart in the source

Molecule: LRX11 (insect-cell protein, limits not stated for the experiment) (domain or fragment)
stoichiometry N [1]: 2

Molecule: PTYNSCRRKCKRDRGYAARRYKRYRYVNADIKRNHSGYPCRICSRLYGRN [RALF4scrambled]
effect on pollen tube growth, in words [2]: no effect

B1: LRX8 (insect-cell protein, limits not stated for the experiment) (domain or fragment)
chain: ENGDLPDDIEYEVDLDLKFANNRLKRAYIALQAWKKAFYSDPFNTAANWVGPDVCSYKGVFCAPALDDPSVLVVAGIDLNHADIAGYLPPELGLLTDVALFHVNSNRFCGVIPKSLSKLTLMYEFDVSNNRFVGPFPTVALSWPSLKFLDIRYNDFEGKLPPEIFDKDLDAIFLNNNRFESTIPETIGKSTASVVTFAHNKFSGCIPKTIGQMKNLNEIVFIGNNLSGCLPNEIGSLNNVTVFDASSNGFVGSLPSTLSGLANVEQMDFSYNKFTGFVTDNICKLPKLSNFTFSYNFFNGEAQSCVPGSSQEKQFDDTSNCLQNRPNQKSAKECLPVVSRPVDCSKDKCAGG
modifications: N-glycosylated
stoichiometry N [11]: 2

Other lines, results leading:

stoichiometry N [1]: 1
stoichiometry N [3]: 1
Kd [4]: 500 nM
Kd [5]: 1500 nM
Kd [6]: 100 nM
kon [7]: 400000 M⁻¹ s⁻¹
Kd [8]: 11000 nM
Kd [9]: 3.5 nM
Kd [10]: 2.5 nM
Molecule: RALF4_(folded) (RALF4 residues 58 to 110, isolated from insect cells) (peptide)

fold reduction of affinity (against RALF4 (folded)) [12]: 10 fold
Molecule: RRYIGYDALKKNNVPCSRRGRSYYDAKKRRRNNPYRRGCSAITHAYRYAR [RALF4_(C86A.C105A)]

Kd [12]: 1400 nM
Molecule: RRYIGYDALKKNNVPCSRRGRSAADCKKRRRNNPYRRGCSAITHCYRYAR [RALF4_(Y83A.Y84A)]

Kd [12]: 60 nM
Molecule: RRYIGYDALKKNNVPCSRRGRSYYDCKKRRRNNPYRRGCSAITHCYRYAR [RALF4_(synthetic)]

fold reduction of affinity (against RALF4 (folded)) [12]: 10 fold
Molecule: RRYIGYDALKKNNVPASRRGRSYYDAKKRRRNNPYRRGASAITHAYRYAR [RALF4_(C76A.C86A.C99A.C105A)]

From PMC7132299 (Proceedings of the National Academy of Sciences of the …, 2020)
